# Source: patent US20220010008A1
# “And” between values parts separate entries of the source, which are not always exact repeats. Equal values may be shown once.
# Experiments:
# [1] = target: recombinant human IL-5 protein with His tag (human) (UniProt P05113); assay: ELISA, biotin-human IL-5 on streptavidin; antibody 0.0213 nM
# [2] = target: recombinant human IL-5 protein with His tag (human) (UniProt P05113); assay: ELISA, biotin-human IL-5 on streptavidin; antibody 0.5333 nM
# [3] = target: recombinant human IL-5 protein with His tag (human) (UniProt P05113); assay: ELISA, biotin-human IL-5 on streptavidin; antibody 0.1067 nM
# [4] = target: recombinant human IL-5 protein with His tag (human) (UniProt P05113); assay: ELISA, biotin-human IL-5 on streptavidin; antibody 0.0043 nM
# [5] = target: recombinant human IL-5 protein with His tag (human) (UniProt P05113); assay: ELISA, biotin-human IL-5 on streptavidin; antibody 0.0009 nM
# [6] = target: recombinant human IL-5 protein with His tag (human) (UniProt P05113); assay: ELISA, biotin-human IL-5 on streptavidin; antibody 0.0002 nM
# [7] = target: recombinant human IL-5 protein with His tag (human) (UniProt P05113); assay: ELISA, biotin-human IL-5 on streptavidin; antibody 13.3333 nM
# [8] = target: recombinant human IL-5 protein with His tag (human) (UniProt P05113); assay: ELISA, biotin-human IL-5 on streptavidin; antibody 2.6667 nM
# [9] = target: recombinant human IL-5 protein (human) (UniProt P05113); assay: cell-based or functional assay
# [10] = target: recombinant human IL-5 protein (human) (UniProt P05113); assay: ELISA, biotin-human IL-5 on streptavidin plate, Ab 0.0009 nM
# [11] = target: recombinant human IL-5 protein (human) (UniProt P05113); assay: FACS blocking: biotin-IL-5 bound to CHOK1 IL-5Ra/CSF2RB cells, Ab 0.2667 nM
# [12] = target: recombinant human IL-5 protein (human) (UniProt P05113); assay: ELISA, biotin-human IL-5 on streptavidin plate, Ab 13.3333 nM
# [13] = target: recombinant human IL-5 protein (human) (UniProt P05113); assay: FACS blocking: biotin-IL-5 bound to CHOK1 IL-5Ra/CSF2RB cells, Ab 6.6667 nM
# [14] = target: recombinant human IL-5 protein (human) (UniProt P05113); assay: ELISA, biotin-human IL-5 on streptavidin plate, Ab 2.6667 nM
# [15] = target: recombinant human IL-5 protein (human) (UniProt P05113); assay: FACS blocking: biotin-IL-5 bound to CHOK1 IL-5Ra/CSF2RB cells, Ab 1.3333 nM
# [16] = target: recombinant human IL-5 protein (human) (UniProt P05113); assay: FACS blocking: biotin-IL-5 bound to CHOK1 IL-5Ra/CSF2RB cells, Ab 0.0107 nM
# [17] = target: recombinant human IL-5 protein (human) (UniProt P05113); assay: ELISA, biotin-human IL-5 on streptavidin plate, Ab 0.1067 nM
# [18] = target: recombinant human IL-5 protein (human) (UniProt P05113); assay: ELISA, biotin-human IL-5 on streptavidin plate, Ab 0.5333 nM
# [19] = target: recombinant human IL-5 protein (human) (UniProt P05113); assay: FACS blocking: biotin-IL-5 bound to CHOK1 IL-5Ra/CSF2RB cells, Ab 0.0533 nM
# [20] = target: recombinant human IL-5 protein (human) (UniProt P05113); assay: ELISA, biotin-human IL-5 on streptavidin plate, Ab 0.0213 nM
# [21] = target: recombinant human IL-5 protein (human) (UniProt P05113); assay: FACS blocking: biotin-IL-5 bound to CHOK1 IL-5Ra/CSF2RB cells, Ab 0.0021 nM
# [22] = target: recombinant human IL-5 protein (human) (UniProt P05113); assay: FACS blocking: biotin-IL-5 bound to CHOK1 IL-5Ra/CSF2RB cells, Ab 33.3333 nM
# [23] = target: recombinant human IL-5 protein (human) (UniProt P05113); assay: FACS blocking: biotin-IL-5 bound to CHOK1 IL-5Ra/CSF2RB cells, Ab 0.0004 nM
# [24] = target: recombinant human IL-5 protein (human) (UniProt P05113); assay: ELISA, biotin-human IL-5 on streptavidin plate, Ab 0.0043 nM
# [25] = target: recombinant human IL-5 protein (human) (UniProt P05113); assay: ELISA, biotin-human IL-5 on streptavidin plate, Ab 0.0002 nM
# [26] = target: recombinant human IL-5 protein (human) (UniProt P05113); assay: FACS, biotin-IL-5 bound to CHOK1 hIL-5Ra/CSF2RB cells with Ab 0.0107 nM
# [27] = target: recombinant human IL-5 protein (human) (UniProt P05113); assay: FACS, biotin-IL-5 bound to CHOK1 hIL-5Ra/CSF2RB cells with Ab 6.6667 nM
# [28] = target: recombinant human IL-5 protein (human) (UniProt P05113); assay: FACS, biotin-IL-5 bound to CHOK1 hIL-5Ra/CSF2RB cells with Ab 0.0533 nM
# [29] = target: recombinant human IL-5 protein (human) (UniProt P05113); assay: FACS, biotin-IL-5 bound to CHOK1 hIL-5Ra/CSF2RB cells with Ab 1.3333 nM
# [30] = target: recombinant human IL-5 protein (human) (UniProt P05113); assay: FACS, biotin-IL-5 bound to CHOK1 hIL-5Ra/CSF2RB cells with Ab 0.2667 nM
# [31] = target: recombinant human IL-5 protein (human) (UniProt P05113); assay: FACS, biotin-IL-5 bound to CHOK1 hIL-5Ra/CSF2RB cells with Ab 33.3333 nM
# [32] = target: recombinant human IL-5 protein (human) (UniProt P05113); assay: FACS, biotin-IL-5 bound to CHOK1 hIL-5Ra/CSF2RB cells with Ab 0.0004 nM
# [33] = target: recombinant human IL-5 protein (human) (UniProt P05113); assay: FACS, biotin-IL-5 bound to CHOK1 hIL-5Ra/CSF2RB cells with Ab 0.0021 nM
# [34] = target: recombinant human IL-5 protein with His tag (human) (UniProt P05113); assay: cell-based or functional assay
substance,measurement,setting,value
mIgG control (antibody),OD450 nm,[1],0.074 and 0.079
same,OD450 nm,[2],0.08 and 0.077
same,OD450 nm,[3],0.08 and 0.079
same,OD450 nm,[4],0.078 and 0.072
same,OD450 nm,[5],0.075
same,OD450 nm,[6],0.076 and 0.075
same,OD450 nm,[7],0.108 and 0.115
same,OD450 nm,[8],0.079
hIgG control (human IgG) (antibody),"RLU, CTLL-2 proliferation with IL-5, Ab 0.000170667 nM",[9],57400 RLU and 51000 RLU
same,"RLU, CTLL-2 proliferation with IL-5, Ab 0.000853333 nM",[9],58600 RLU and 53800 RLU
same,"RLU, CTLL-2 proliferation with IL-5, Ab 0.004266667 nM",[9],57900 RLU and 48200 RLU
same,"RLU, CTLL-2 proliferation with IL-5, Ab 0.02133333 nM",[9],59800 RLU and 55900 RLU
same,"RLU, CTLL-2 proliferation with IL-5, Ab 0.1066667 nM",[9],58200 RLU and 53500 RLU
same,"RLU, CTLL-2 proliferation with IL-5, Ab 0.5333334 nM",[9],56200 RLU and 50500 RLU
same,"RLU, CTLL-2 proliferation with IL-5, Ab 2.666667 nM",[9],51200 RLU and 46200 RLU
same,"RLU, CTLL-2 proliferation with IL-5, Ab 13.33333 nM",[9],45800 RLU and 46300 RLU
same,"RLU, CTLL-2 proliferation with IL-5, Ab 66.66666 nM",[9],43200 RLU and 34400 RLU
same,"RLU, CTLL-2 proliferation with IL-5, Ab 3.41333E-05 nM",[9],58600 RLU and 55000 RLU
same,"RLU, TF-1 proliferation with IL-5, Ab 0.00001 nM",[9],113000 RLU and 118000 RLU
same,"RLU, TF-1 proliferation with IL-5, Ab 0.00003 nM",[9],112000 RLU and 116000 RLU
same,"RLU, TF-1 proliferation with IL-5, Ab 0.00017 nM",[9],112000 RLU and 121000 RLU
same,"RLU, TF-1 proliferation with IL-5, Ab 0.00085 nM",[9],115000 RLU and 117000 RLU
same,"RLU, TF-1 proliferation with IL-5, Ab 0.00427 nM",[9],116000 RLU and 127000 RLU
same,"RLU, TF-1 proliferation with IL-5, Ab 0.02133 nM",[9],108000 RLU and 131000 RLU
same,"RLU, TF-1 proliferation with IL-5, Ab 0.10667 nM",[9],108000 RLU and 114000 RLU
same,"RLU, TF-1 proliferation with IL-5, Ab 0.53333 nM",[9],103000 RLU and 106000 RLU
same,"RLU, TF-1 proliferation with IL-5, Ab 2.66667 nM",[9],101000 RLU and 106000 RLU
same,"RLU, TF-1 proliferation with IL-5, Ab 13.33333 nM",[9],101000 RLU and 102000 RLU
same,OD450 nm,[10],0.08 OD450 nm and 0.078 OD450 nm
same,Fluorescence intensity,[11],88 MFI
same,OD450 nm,[12],0.172 OD450 nm and 0.07 OD450 nm
same,Fluorescence intensity,[13],83 MFI
same,OD450 nm,[14],0.09 OD450 nm and 0.088 OD450 nm
same,Fluorescence intensity,[15],84 MFI
same,Fluorescence intensity,[16],85 MFI
same,OD450 nm,[17],0.078 OD450 nm
same,OD450 nm,[18],0.079 OD450 nm and 0.078 OD450 nm
same,Fluorescence intensity,[19],86 MFI
same,OD450 nm,[20],0.079 OD450 nm and 0.076 OD450 nm
same,Fluorescence intensity,[21],83 MFI
same,Fluorescence intensity,[22],84 MFI
same,Fluorescence intensity,[23],88 MFI
same,OD450 nm,[24],0.074 OD450 nm and 0.077 OD450 nm
same,OD450 nm,[25],0.082 OD450 nm and 0.08 OD450 nm
mIgG control (mouse IgG) (antibody),Fluorescence intensity,[26],83
same,Fluorescence intensity,[27],85
same,"RLU, CTLL-2 cell proliferation stimulated by IL-5, Ab conc. 0.000170667 nM",[9],57400 RLU and 51000 RLU
same,"RLU, CTLL-2 cell proliferation stimulated by IL-5, Ab conc. 0.000853333 nM",[9],58600 RLU and 53800 RLU
same,"RLU, CTLL-2 cell proliferation stimulated by IL-5, Ab conc. 0.004266667 nM",[9],57900 RLU and 48200 RLU
same,"RLU, CTLL-2 cell proliferation stimulated by IL-5, Ab conc. 0.02133333 nM",[9],59800 RLU and 55900 RLU
same,"RLU, CTLL-2 cell proliferation stimulated by IL-5, Ab conc. 0.1066667 nM",[9],58200 RLU and 53500 RLU
same,"RLU, CTLL-2 cell proliferation stimulated by IL-5, Ab conc. 0.5333334 nM",[9],56200 RLU and 50500 RLU
same,"RLU, CTLL-2 cell proliferation stimulated by IL-5, Ab conc. 2.666667 nM",[9],51200 RLU and 46200 RLU
same,"RLU, CTLL-2 cell proliferation stimulated by IL-5, Ab conc. 13.33333 nM",[9],45800 RLU and 46300 RLU
same,"RLU, CTLL-2 cell proliferation stimulated by IL-5, Ab conc. 66.66666 nM",[9],43200 RLU and 34400 RLU
same,"RLU, CTLL-2 cell proliferation stimulated by IL-5, Ab conc. 3.41333E-05 nM",[9],58600 RLU and 55000 RLU
same,"RLU, TF-1 cell proliferation stimulated by IL-5, Ab conc. 0.00001 nM",[9],113000 RLU and 118000 RLU
same,"RLU, TF-1 cell proliferation stimulated by IL-5, Ab conc. 0.00003 nM",[9],112000 RLU and 116000 RLU
same,"RLU, TF-1 cell proliferation stimulated by IL-5, Ab conc. 0.00017 nM",[9],112000 RLU and 121000 RLU
same,"RLU, TF-1 cell proliferation stimulated by IL-5, Ab conc. 0.00085 nM",[9],115000 RLU and 117000 RLU
same,"RLU, TF-1 cell proliferation stimulated by IL-5, Ab conc. 0.00427 nM",[9],116000 RLU and 127000 RLU
same,"RLU, TF-1 cell proliferation stimulated by IL-5, Ab conc. 0.02133 nM",[9],108000 RLU and 131000 RLU
same,"RLU, TF-1 cell proliferation stimulated by IL-5, Ab conc. 0.10667 nM",[9],108000 RLU and 114000 RLU
same,"RLU, TF-1 cell proliferation stimulated by IL-5, Ab conc. 0.53333 nM",[9],103000 RLU and 106000 RLU
same,"RLU, TF-1 cell proliferation stimulated by IL-5, Ab conc. 2.66667 nM",[9],101000 RLU and 106000 RLU
same,"RLU, TF-1 cell proliferation stimulated by IL-5, Ab conc. 13.33333 nM",[9],101000 RLU and 102000 RLU
same,Fluorescence intensity,[28],83
same,Fluorescence intensity,[29],83
same,Fluorescence intensity,[30],84
same,Fluorescence intensity,[31],80
same,Fluorescence intensity,[32],86
same,Fluorescence intensity,[33],81
Mepolizumab (antibody),"TF1 (IC50), TF1 proliferation induced by IL-5",[34],10 pM
